In the series the target is T1, myoglobin (human, UniProt P02144 2-154).
T1 sequence: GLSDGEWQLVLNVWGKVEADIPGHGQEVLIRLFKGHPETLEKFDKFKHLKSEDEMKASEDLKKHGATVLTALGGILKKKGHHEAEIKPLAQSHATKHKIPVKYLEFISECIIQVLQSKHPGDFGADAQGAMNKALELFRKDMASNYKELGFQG
The series is described as follows: electrochemical aptasensor (DPV); aptamer immobilized on TCPP-Gr/AuNPs/GCE; 45 min incubation; 1.47e-10 M myoglobin; LOD 6.7e-12 M, linear 2.0e-11 to 7.7e-7 M (not Kd); Aptamer dissolved in T-buffer: 20 mM Tris-HCl, 0.10 M NaCl, 5.0 mM MgCl2, 10 mM TCEP, pH 7.4; binding buffer and temperature not given in the material. The conditions noted are these: protein: native; label: ferrocene (3').

1 molecule from paper PMC5134462, “Electrochemical Aptasensor for Myoglobin-Specific Recognition Based on Porphyrin Functionalized Graphene-Conjugated Gold Nanocomposites” can be followed below.

For the molecule CCCTCCTTTCCTTCGACGTAGATCTGCTGCGTTGTTCCGA (ssDNA, 5' SH-(CH2)6; 3' ferrocene (Fc)) [MbBA (myoglobin-binding aptamer)], the binding result was “binds”.
